Source: paper PMC4361902 (Nature, 2014)

How the values were obtained:
[1] = molecular target: the molecule itself; assay: cryo-EM structure
[2] = molecular target: the molecule itself; assay: crystal structure

Protein | stoichiometry N [1] | stoichiometry N [2]
AcrB as it stands in the efflux pump assembly (AcrB moiety of the AcrA-AcrB fusion) (domain or fragment, E. coli, UniProt P31224 1-1047, looked up) MPNFFIDRPIFAWVIAIIIMLAGGLAILKLPVAQYPTIAPPAVTISASYPGADAKTVQDTVTQVIEQNMNGIDNLMYMSSNSDSTGTVQITLTFESGTDADIAQVQVQNKLQLAMPLLPQEVQQQGVSVEKSSSSFLMVVGVINTDGTMTQEDISDYVAANMKDAISRTSGVGDVQLFGSQYAMRIWMNPNELNKFQLTPVDVITAIKAQNAQVAAGQLGGTPPVKGQQLNASIIAQTRLTSTEEFGKILLKVNQDGSRVLLRDVAKIELGGENYDIIAEFNGQPASGLGIKLATGANALDTAAAIRAELAKMEPFFPSGLKIVYPYDTTPFVKISIHEVVKTLVEAIILVFLVMYLFLQNFRATLIPTIAVPVVLLGTFAVLAAFGFSINTLTMFGMVLAIGLLVDDAIVVVENVERVMAEEGLPPKEATRKSMGQIQGALVGIAMVLSAVFVPMAFFGGSTGAIYRQFSITIVSAMALSVLVALILTPALCATMLKPIAKGDHGEGKKGFFGWFNRMFEKSTHHYTDSVGGILRSTGRYLVLYLIIVVGMAYLFVRLPSSFLPDEDQGVFMTMVQLPAGATQERTQKVLNEVTHYYLTKEKNNVESVFAVNGFGFAGRGQNTGIAFVSLKDWADRPGEENKVEAITMRATRAFSQIKDAMVFAFNLPAIVELGTATGFDFELIDQAGLGHEKLTQARNQLLAEAAKHPDMLTSVRPNGLEDTPQFKIDIDQEKAQALGVSINDINTTLGAAWGGSYVNDFIDRGRVKKVYVMSEAKYRMLPDDIGDWYVRAADGQMVPFSAFSSSRWEYGSPRLERYNGLPSMEILGQAAPGKSTGEAMELMEQLASKLPTGVGYDWTGMSYQERLSGNQAPSLYAISLIVVFLCLAALYESWSIPFSVMLVVPLGVIGALLAATFRGLTNDVYFQVGLLTTIGLSAKNAILIVEFAKDLMDKEGKGLIEATLDAVRMRLRPILMTSLAFILGVMPLVISTGAGSGAQNAVGTGVMGGMVTATVLAIFFVPVFFVVVRRRFSRKNEDIEHSHTVD | 3 | –
TolC (tolC1392, coexpressed from pRSFduet-1-acrA-polyGS-acrZHis5-tolC1392) (natural protein) ENLMQVYQQARLSNPELRKSAADRDAAFEKINEARSPLLPQLGLGADYTYSNGYRDANGINSNATSASLQLTQSIFDMSKWRALTLQEKAAGIQDVTYQTDQQTLILNTATAYFNVLNAIDVLSYTQAQKEAIYRQLDQTTQRFNVGLVAITDVQNARAQYDTVLANEVTARNNLDNAVEQLRQITGNYYPELAALNVENFKTDKPQPVNALLKEAEKRNLSLLQARLSQDLAREQIRQAQDGHLPTLDLTASTGISDTSYSGSKTRGAAGTQYDDSNMGQNKVGLSFSLPIYQGGMVNSQVKQAQYNFVGASEQLESAHRSVVQTVRSSFNNINASISSINAYKQAVVSAQSSLDAMEAGYSVGTRTIVDVLDATTTLYNAKQELANARYNYLINQLNIKSALGTLNEQDLLALNNALSKPVSTNPENVAPQTPEQNAIAD | 3 | –
AcrB with the C-terminal histidines removed (pET21a-acrBΔHis) (natural protein, E. coli, UniProt P31224 1-1047, looked up) MPNFFIDRPIFAWVIAIIIMLAGGLAILKLPVAQYPTIAPPAVTISASYPGADAKTVQDTVTQVIEQNMNGIDNLMYMSSNSDSTGTVQITLTFESGTDADIAQVQVQNKLQLAMPLLPQEVQQQGVSVEKSSSSFLMVVGVINTDGTMTQEDISDYVAANMKDAISRTSGVGDVQLFGSQYAMRIWMNPNELNKFQLTPVDVITAIKAQNAQVAAGQLGGTPPVKGQQLNASIIAQTRLTSTEEFGKILLKVNQDGSRVLLRDVAKIELGGENYDIIAEFNGQPASGLGIKLATGANALDTAAAIRAELAKMEPFFPSGLKIVYPYDTTPFVKISIHEVVKTLVEAIILVFLVMYLFLQNFRATLIPTIAVPVVLLGTFAVLAAFGFSINTLTMFGMVLAIGLLVDDAIVVVENVERVMAEEGLPPKEATRKSMGQIQGALVGIAMVLSAVFVPMAFFGGSTGAIYRQFSITIVSAMALSVLVALILTPALCATMLKPIAKGDHGEGKKGFFGWFNRMFEKSTHHYTDSVGGILRSTGRYLVLYLIIVVGMAYLFVRLPSSFLPDEDQGVFMTMVQLPAGATQERTQKVLNEVTHYYLTKEKNNVESVFAVNGFGFAGRGQNTGIAFVSLKDWADRPGEENKVEAITMRATRAFSQIKDAMVFAFNLPAIVELGTATGFDFELIDQAGLGHEKLTQARNQLLAEAAKHPDMLTSVRPNGLEDTPQFKIDIDQEKAQALGVSINDINTTLGAAWGGSYVNDFIDRGRVKKVYVMSEAKYRMLPDDIGDWYVRAADGQMVPFSAFSSSRWEYGSPRLERYNGLPSMEILGQAAPGKSTGEAMELMEQLASKLPTGVGYDWTGMSYQERLSGNQAPSLYAISLIVVFLCLAALYESWSIPFSVMLVVPLGVIGALLAATFRGLTNDVYFQVGLLTTIGLSAKNAILIVEFAKDLMDKEGKGLIEATLDAVRMRLRPILMTSLAFILGVMPLVISTGAGSGAQNAVGTGVMGGMVTATVLAIFFVPVFFVVVRRRFSRKNEDIEHSHTVD | – | 3
